Measurements from patent US20190002529A1 (GOVERNMENT OF THE UNITED STATES OF AMERICA AS REPRESENTED …, published 2019).

Target: T1, Eptatretus stoutii FIL-Alpha including a polyhistidine tag (Eptatretus stoutii, UniProt Q90501 1-643)
T1 construct: Recombinant protein expressed in E. coli; also called alpha protein; hagfish intermediate filament alpha protein
T1 sequence: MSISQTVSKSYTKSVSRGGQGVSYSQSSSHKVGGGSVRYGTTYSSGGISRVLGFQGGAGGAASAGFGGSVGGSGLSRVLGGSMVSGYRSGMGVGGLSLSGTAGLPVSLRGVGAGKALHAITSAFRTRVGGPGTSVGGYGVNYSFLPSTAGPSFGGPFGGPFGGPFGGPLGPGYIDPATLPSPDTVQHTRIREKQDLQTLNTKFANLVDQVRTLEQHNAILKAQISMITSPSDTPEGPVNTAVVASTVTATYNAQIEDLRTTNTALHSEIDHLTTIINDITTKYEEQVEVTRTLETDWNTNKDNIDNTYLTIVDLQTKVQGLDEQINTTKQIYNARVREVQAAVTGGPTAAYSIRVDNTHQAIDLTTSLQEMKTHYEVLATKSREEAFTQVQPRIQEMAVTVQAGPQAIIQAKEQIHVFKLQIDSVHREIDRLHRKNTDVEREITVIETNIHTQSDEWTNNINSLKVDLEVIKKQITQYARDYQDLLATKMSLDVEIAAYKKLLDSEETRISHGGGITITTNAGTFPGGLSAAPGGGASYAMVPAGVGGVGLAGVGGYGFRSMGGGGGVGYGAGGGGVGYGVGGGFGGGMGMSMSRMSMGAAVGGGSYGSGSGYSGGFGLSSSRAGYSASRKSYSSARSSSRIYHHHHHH
Assay: filament/thread self-assembly of refolded recombinant His-tagged proteins; filaments observed by microscopy

B1: Eptatretus stoutii FIL-Gamma including a polyhistidine tag (other)
chain: MASHSSVSYRSVRTGGTSAMIGSSGYGGSSSSRAMGLGMGAAGLSMGGGSFRVGSAGIGGMGISSGIGGMGISSRAGGMSAYGGAASGGAGGFVSGGVPMLGYGGGAGGFIGGVSPGIMASPAFTAGRAITSAGMSGVVGTLGPAGGMVPSLVSRDEVKNILGTLNQRLASYVDKVRQLTIENETMEEELKNLTGGVPMSPDSTVNLENVETQVTEMLTEVSNLTLERVRLEIDVDHLRATADEIKSKYEFELGVRMQLETDIANMKRDLEAANDMRVDLDSKFNFLTEELTFQRKTQMEELNTLKQQFGRLGPVQTSVIELDNVKSVNLTDALNVMREEYQQVVTKNVQEAETYCKMQIDQIQGISTQTTEQISILDKEINTLEKELQPLNVEYQRLLTTYQTLGDRLTDLQNRESIDLVQFQNTYTRYEQEIEGNQVDLQRQLVTYQQLLDVKTALDAEIATYKKLLEGQELMVRTAMADDFAHATVVRSGTLGGASSSSVGYGASSTTLGAISGGYSTGGGASYSAGAGGASYSAGAGGASYGVGGGYSGGSSAMMEGSSSGGHSMYSSSSMKRSSSKSASASAGGYGTSGHDSTIILQQHHHHHH
notes: also called gamma protein; hagfish intermediate filament gamma protein
B1: binds.
